Consider one molecule from US20180073013A1 (published 2018).

Common to all, as to assay: cytokine release
Assay [1] deals with T1, HPV16 oncoprotein E5 peptide on HLA-B*15:01 (human).
T1 peptide: ITAASAFRCFIVY

Assay [2] deals with T2, HPV16 oncoprotein E5 peptide on HLA-B*15:01 (human).
T2 peptide: LLLWITAASAF

Assay [3] addresses T3, HPV16 oncoprotein E5 peptide on HLA-B*15:01 (human).
T3 peptide: TAASAFRCFIVY

For assay [4], the target named is T4, HPV16 oncoprotein E5 peptide on HLA-B*15:01 (human).
T4 peptide: WITAASAF

In assay [5] the target is T5, HPV16 oncoprotein E5 peptide on HLA-B*15:01 (human).
T5 peptide: ASAFRCFIVY

In assay [6] the target is T6, HPV16 oncoprotein E5 peptide on HLA-B*15:01 (human).
T6 peptide: AASAFRCFIVY

The target of assay [7] is T7, HPV16 oncoprotein E5 peptide on HLA-B*15:01 (human).
T7 peptide: WITAASAFRCFIVY

Assay [8] concerns the target T8, HPV16 oncoprotein E5 peptide on HLA-B*15:01 (human).
T8 peptide: LLWITAASAF

B1: HPV16 E5-specific TCR (TRAV17 + TRBV6-5) (TCR, V domains shown)
Valpha: SQQGEEDPQALSIQEGENATMNCSYKTSINNLQWYRQNSGRGLVHLILIRSNEREKHSGRLRVTLDTSKKSSSLLITASRAADTASYFCAESEYGNKLVFGAGTILRVKS
Vbeta: NAGVTQTPKFQVLKTGQSMTLQCAQDMNHEYMSWYRQDPGMGLRLIHYSVGAGITDQGEVPNGYNVSRSTTEDFPLRLLSAAPSQTSVYFCASSYRQQETQYFGPGTRLLVL
In the case of B1, the binding result is “recognises” in assay [1]; “no recognition” in assay [2]; “recognises” in assay [3]; “no recognition” in assay [4]; “recognises” in assay [5]; “recognises” in assay [6]. The binding result in assay [7] was “recognises”; in assay [8], “no recognition”.
